These results are taken from PMC10204179.

The target of this experiment is protein G_1. Put plainly: SEC-MALS.

Substance protein G_1 returned a stoichiometry N of 2.
